T1: Human IL-2Rβ (Homo sapiens, UniProt P14784)
T1 construct: corresponding to residues Ala1-Thr215 of the extracellular domains excluding the signal peptide
T1 sequence (P14784 26-240 limits assumed): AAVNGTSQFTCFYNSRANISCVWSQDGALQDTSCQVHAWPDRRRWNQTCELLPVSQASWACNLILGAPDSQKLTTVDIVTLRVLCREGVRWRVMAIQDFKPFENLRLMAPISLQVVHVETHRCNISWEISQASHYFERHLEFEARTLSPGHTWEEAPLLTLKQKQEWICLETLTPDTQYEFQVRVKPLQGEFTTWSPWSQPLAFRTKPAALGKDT

T2: Cynomolgus IL-2Rβ (Macaca fascicularis, UniProt Q38J85)
T2 construct: corresponding to residues Ala1-Thr215 of the extracellular domains excluding the signal peptide
T2 sequence (Q38J85 26-240 limits assumed): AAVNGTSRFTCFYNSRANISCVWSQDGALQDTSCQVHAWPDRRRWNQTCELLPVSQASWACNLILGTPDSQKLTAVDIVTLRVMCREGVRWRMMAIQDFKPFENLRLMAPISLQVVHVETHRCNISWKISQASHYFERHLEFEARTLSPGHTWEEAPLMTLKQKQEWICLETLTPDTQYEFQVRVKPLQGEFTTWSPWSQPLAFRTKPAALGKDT

T3: IL-2RB (Homo sapiens, UniProt P14784)
T3 sequence (P14784 27-551): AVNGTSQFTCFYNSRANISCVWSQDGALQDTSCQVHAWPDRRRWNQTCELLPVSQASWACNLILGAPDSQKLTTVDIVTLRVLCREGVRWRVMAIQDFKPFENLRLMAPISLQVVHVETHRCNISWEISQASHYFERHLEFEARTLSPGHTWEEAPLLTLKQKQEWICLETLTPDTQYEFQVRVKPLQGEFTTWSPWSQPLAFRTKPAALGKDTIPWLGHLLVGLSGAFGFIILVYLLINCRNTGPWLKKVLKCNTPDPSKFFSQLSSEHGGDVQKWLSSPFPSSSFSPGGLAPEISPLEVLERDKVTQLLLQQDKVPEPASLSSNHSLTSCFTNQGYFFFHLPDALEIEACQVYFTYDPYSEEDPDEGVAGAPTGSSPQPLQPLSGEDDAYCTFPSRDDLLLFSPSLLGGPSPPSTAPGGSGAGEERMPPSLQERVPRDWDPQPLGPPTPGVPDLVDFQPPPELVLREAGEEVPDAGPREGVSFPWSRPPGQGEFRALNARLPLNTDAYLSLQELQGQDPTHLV


What was measured:
Human IL-2Rβ = target: T1, Human IL-2Rβ; experiment: SPR binding affinity to recombinant human IL-2Rβ (Biacore); details: 1:1 binding model
Method: (§1) Surface plasmon resonance (SPR) was used to determine the binding affinities. The M6-1625 and M10-1275 antibodies were captured onto a Cytiva Protein A Chip for 60 seconds at 0.5 μg/mL for 60 seconds. The antibodies were exposed to recombinant human LL-2Rβ or cynomolgus LL-2Rβ (corresponding to residues Ala1-Thr215 of the extracellular domains excluding the signal peptide) at typical concentrations ranging from 0.4 nM to 11 nM with typical 300 second associations and 1200 second dissociations using a BiacoreS200 instrument. Sensorgrams were fit globally using a 1:1 binding model in the Biacore T200 Evaluation Software to calculate on- and off-rates and KD values.

Cynomolgus IL-2Rβ = target: T2, Cynomolgus IL-2Rβ; experiment: SPR binding affinity to recombinant cynomolgus IL-2Rβ (Biacore); details: 1:1 binding model
Method: as §1

[1] = tested on: PHA-stimulated primary human T cell blasts; experiment: IL-2- or IL-15-induced proliferation of PHA-stimulated T cell blasts (CTG); assay type: cell-based; details: IL-2 (15 pM) or IL-15 (150 pM) induced proliferation, IgG4 antibodies, compared with upadacitinib, FIG. 4
Method: Primary human PBMCs were isolated from whole blood donors, and stimulated in cuture for 3 days with 5 μg/mL PHA in a T75 flask. Cells were washed, counted, and plated at 100,000 cells/well in a 96-well plate. Antibodies were titrated at the concentrations indicated in FIG. 4, starting at 100 nM with 1:3 dilutions, and added to the cells. Recombinant IL-2 (15 pM) or IL-15 (150 pM) were added to the cells. Cells were cultured for an additional three days. SteadyGlo substrate was added for 10 minutes and the plates were read on the GloMax machine. Data were analyzed using Graphpad Prism software.

IL-2RB = target: T3, IL-2RB; experiment: Ability to block IL-2 (SPR assay); assay type: binding; details: chimeric antibodies
[2] = tested on: xenogeneic NSG(huIL-15Tg)/Hu-PBMC Graft vs. Host Disease (GvHD) model; experiment: Xenogeneic NSG(huIL-15Tg)/Hu-PBMC GvHD model, Example 14; assay type: in vivo, mice; details: 10 mg/kg, 3 mg/kg, or 1 mg/kg intraperitoneally twice weekly for 4 weeks; FIG. 14
Method: A xenogeneic NSG(huIL-15Tg)/Hu-PBMC GvHD model testing the efficacy of the anti-CD122 antibody disclosed herein was performed at The Jackson laboratory JAX® In Vivo Pharmacology Services (Sacramento, CA). NOD-scidIL2rγ^null (NSG) human IL-15 transgenic mice were irradiated with 1 Gy followed by intravenous injection of human PBMCs in each mouse. APE15428 (IgG1-LALA) was dosed intraperitoneally at 10 mg/kg, 3 mg/kg, or 1 mg/kg twice weekly for 4 weeks starting the day following PBMC injection. Disease was monitored three times weekly by body weight loss, death, and GvHD scores measuring: weight loss, activity, fur texture, paleness, and posture.

Molecule	Kd (Human IL-2Rβ) [nM]	Kd (Cynomolgus IL-2Rβ) [nM]	other results
APE15170: M10-1275 series anti-CD122 antibody, VH SEQ ID NO: 23, VL SEQ ID NO: 35 (antibody, V domains shown, IgG4P format) VH: EVQLVQSGAEVKKPGATVKISCKVSGFNFKESLIHWVQQAPGKGLEWMGWIDNEAGETEYAPGFQDRVTITADTSTDTAYMELSSLRSEDTAVYYCARGGPWFLSYWGQGTTVTVSS VL: EIVMTQSPATLSVSPGERATLSCRASQIISNNLHWYQQKPGQAPRLLIIYGLQSISGIPARFSGSRSGTEFTLTISSLQSEDFAVYFCQQSNNFPWTFGQGTKLEIKR	0.0128	0.00487	
APE15446: M10-1275 series anti-CD122 antibody, VH SEQ ID NO: 24, VL SEQ ID NO: 35 (antibody, V domains shown) VH: EVQLVQSGAEVKKPGATVKISCKVSGFNFKESLIHWVQQAPGKGLEWMGWIDNEAGETEYAPGFQDRVTITADTSTDTAYMELSSLRSEDTAVYYCARGGPWFLSYWGQGTTVTVSS VL: EIVMTQSPATLSVSPGERATLSCRASQIISNNLHWYQQKPGQAPRLLIIYGLQSISGIPARFSGSRSGTEFTLTISSLQSEDFAVYFCQQSNNFPWTFGQGTKLEIKR	0.0107	0.00415	
M6-1625: anti-CD122 IgG4 antibody of the M6-p1625 class tested in Example 4; APE number not stated (antibody, V domains shown) VH: QVQLQQSGAELMKPGASVKISCKSTGYTFSRYWIEWVKQRPGHGLEWIGEILPGSGSINHNEKFQGKATFTADTSSNTVYMQLSSLTSEDSAVYFCTRHYGSFDYWGQGTTLTVSS VL: EIVMTQSPKFMSTSVGDRVSVTCKASQNVGTDVAWYQQKPGQSPKALIYSASYRYNGVPDRFTGSGSGTDFTLTISNVQSEDLAEYFCHQYSSYPFTFGSGTKLEIKR			blocking IL-2 and IL-15 [1]: better than upadacitinib
APE12383: M6-p1625 series anti-CD122 antibody (chimeric in Table 3), VH SEQ ID NO: 37, VL SEQ ID NO: 70 (antibody, V domains shown) VH: QVQLQQSGAELMKPGASVKISCKSTGYTFSRYWIEWVKQRPGHGLEWIGEILPGSGSINHNEKFQGKATFTADTSSNTVYMQLSSLTSEDSAVYFCTRHYGSFDYWGQGTTLTVSS VL: EIVMTQSPKFMSTSVGDRVSVTCKASQNVGTDVAWYQQKPGQSPKALIYSASYRYNGVPDRFTGSGSGTDFTLTISNVQSEDLAEYFCHQYSSYPFTFGSGTKLEIKR			Blocking (IL-2 down) (IL-2RB): Blocker
M10-1275: anti-CD122 IgG4 antibody of the M10-1275 class tested in Example 4; APE number not stated (antibody, V domains shown) VH: DVQLQQSGAELARPGASVKLSCTVSGFNFKDSLMHWVTQGPERGLRWIGWIDSENGETEYAPGFQDKATITADTSSSTVYLHLSSLTSEDTAIYYCARGGPWFLSYWGPGTTLTVSS VL: DIVLTQTPATLSVTPGDSVSLSCRASQIISNNLHWYQQKSHESPRLLIIYGLQSISGIPYRFSGRRSGTDFTLNINSVEIEDFGMYFCQQSNNWPWTFGGGTKLDIRR			blocking IL-2 and IL-15 [1]: better than upadacitinib
APE12705: M10-1275 series anti-CD122 antibody (chimeric in Table 3), VH SEQ ID NO: 1, VL SEQ ID NO: 25 (antibody, V domains shown) VH: DVQLQQSGAELARPGASVKLSCTVSGFNFKDSLMHWVTQGPERGLRWIGWIDSENGETEYAPGFQDKATITADTSSSTVYLHLSSLTSEDTAIYYCARGGPWFLSYWGPGTTLTVSS VL: DIVLTQTPATLSVTPGDSVSLSCRASQIISNNLHWYQQKSHESPRLLIIYGLQSISGIPYRFSGRRSGTDFTLNINSVEIEDFGMYFCQQSNNWPWTFGGGTKLDIRR			Blocking (IL-2 down) (IL-2RB): Partial
APE15428: M6-p1625 series anti-CD122 antibody, VH SEQ ID NO: 69, VL SEQ ID NO: 77 (antibody, V domains shown, IgG1 LALA Fc format) VH: QVQLVQSGAEVKKPGASVKVSCKASGYTFTRFWIQWVRQAPGQGLEWMGEILPGSGSINHNEKFQGRVTMTRDTSTSTVYMELSSLRSEDTAVYYCTRHYGSFDYWGQGTTVTVSS VL: DIQMTQSPSSLSASVGDRVTITCKASQNVGTDVAWYQQKPGKAPKSLIYSASYRYSGVPSRFSGSGSGTDFTLTISSLQPEDFATYFCHQYESYPFTFGQGTKLEIKR	0.0567	0.0765	median time to survival vs. isotype control [2]: statistically significant efficacy
APE15295: M6-p1625 series anti-CD122 antibody, VH SEQ ID NO: 68, VL SEQ ID NO: 77 (antibody, V domains shown, IgG4P format) VH: QVQLVQSGAEVKKPGASVKVSCKASGYTFTRFWIQWVRQAPGQGLEWMGEILPGSGSINHNEKFQGRVTMTRDTSTSTVYMELSSLRSEDTAVYYCTRHYGSFDYWGQGTTVTVSS VL: DIQMTQSPSSLSASVGDRVTITCKASQNVGTDVAWYQQKPGKAPKSLIYSASYRYSGVPSRFSGSGSGTDFTLTISSLQPEDFATYFCHQYESYPFTFGQGTKLEIKR	0.0557	0.0707	

Reference: patent US20260265385A1, “CD122 BINDING AGENTS AND METHOD OF USING SAME” (AnaptysBio, Inc., priority 2022, published 2026)
